Compound in data set [1]: CC[C@H](C)[C@H](NC(=O)[C@H](CC(C)C)NC(=O)[C@H](CCCNC(=N)N)NC(C)=O)C(=O)N[C@@H](CCCCNC(C)=O)C(=O)Nc1ccc2c(C)cc(=O)oc2c1
Description: (§1) Substrate activity at human N-terminal His-tagged SIRT1 (183 to 664 residues) expressed in Escherichia coli assessed as ratio of Kcat to Km measured after 1 hr in presence of NAD+ and trypsin by Michaelis-Menten kinetic model based fluorescence assay.

Compound in data set [2]: CC(=O)NCCCC[C@H](NC(=O)[C@H](CC(C)C)NC(=O)[C@H](CCCCN)NC(=O)[C@H](Cc1ccc(O)cc1)NC(C)=O)C(=O)Nc1ccc2c(C)cc(=O)oc2c1
The data set is described as §1.

Compound in data set [3]: CC[C@H](C)[C@H](NC(=O)[C@H](CC(C)C)NC(=O)[C@H](CCCNC(=N)N)NC(C)=O)C(=O)N[C@@H](CCCCNC(C)=O)C(=O)Nc1ccc2c(C)cc(=O)oc2c1
The data set is described as follows: (§2) Substrate activity at human N-terminal His-tagged SIRT1 (183 to 664 residues) expressed in Escherichia coli assessed as Kcat measured after 1 hr in presence of NAD+ and trypsin by Michaelis-Menten kinetic model based fluorescence assay.

Compound in data set [4]: CC(=O)NCCCC[C@H](NC(=O)[C@H](CC(C)C)NC(=O)[C@H](CCCCN)NC(=O)[C@H](Cc1ccc(O)cc1)NC(C)=O)C(=O)Nc1ccc2c(C)cc(=O)oc2c1
The description is as §2.

Compound in data set [5]: CC[C@H](C)[C@H](NC(=O)[C@H](CC(C)C)NC(=O)[C@H](CCCNC(=N)N)NC(C)=O)C(=O)N[C@@H](CCCCNC(C)=O)C(=O)Nc1ccc2c(C)cc(=O)oc2c1
The data set is described as follows: (§3) Substrate activity at human N-terminal His-tagged SIRT1 (183 to 664 residues) expressed in Escherichia coli assessed as Km measured after 1 hr in presence of NAD+ and trypsin by Michaelis-Menten kinetic model based fluorescence assay.

Compound in data set [6]: CC(=O)NCCCC[C@H](NC(=O)[C@H](CC(C)C)NC(=O)[C@H](CCCCN)NC(=O)[C@H](Cc1ccc(O)cc1)NC(C)=O)C(=O)Nc1ccc2c(C)cc(=O)oc2c1
The data set is described as §3.

Compound in data set [7]: CC[C@H](C)[C@H](NC(=O)[C@H](CC(C)C)NC(=O)[C@H](CCCNC(=N)N)NC(C)=O)C(=O)N[C@@H](CCCCNC(C)=O)C(=O)Nc1ccc2c(C)cc(=O)oc2c1
Description: (§4) Substrate activity at human N-terminal His-tagged SIRT1 (183 to 664 residues) expressed in Escherichia coli assessed as Vmax measured after 1 hr in presence of NAD+ and trypsin by Michaelis-Menten kinetic model based fluorescence assay.

Compound in data set [8]: CC(=O)NCCCC[C@H](NC(=O)[C@H](CC(C)C)NC(=O)[C@H](CCCCN)NC(=O)[C@H](Cc1ccc(O)cc1)NC(C)=O)C(=O)Nc1ccc2c(C)cc(=O)oc2c1
Described as §4.

B1: NAD-dependent protein deacetylase sirtuin-1 (Homo sapiens), Q96EB6 (protein)
chain: MADEAALALQPGGSPSAAGADREAASSPAGEPLRKRPRRDGPGLERSPGEPGGAAPEREVPAAARGCPGAAAAALWREAEAEAAAAGGEQEAQATAAAGEGDNGPGLQGPSREPPLADNLYDEDDDDEGEEEEEAAAAAIGYRDNLLFGDEIITNGFHSCESDEEDRASHASSSDWTPRPRIGPYTFVQQHLMIGTDPRTILKDLLPETIPPPELDDMTLWQIVINILSEPPKRKKRKDINTIEDAVKLLQECKKIIVLTGAGVSVSCGIPDFRSRDGIYARLAVDFPDLPDPQAMFDIEYFRKDPRPFFKFAKEIYPGQFQPSLCHKFIALSDKEGKLLRNYTQNIDTLEQVAGIQRIIQCHGSFATASCLICKYKVDCEAVRGDIFNQVVPRCPRCPADEPLAIMKPEIVFFGENLPEQFHRAMKYDKDEVDLLIVIGSSLKVRPVALIPSSIPHEVPQILINREPLPHLHFDVELLGDCDVIINELCHRLGGEYAKLCCNPVKLSEITEKPPRTQKELAYLSELPPTPLHVSEDSSSPERTSPPDSSVIVTLLDQAAKSNDDLDVSESKGCMEEKPQEVQTSRNVESIAEQMENPDLKNVGSSTGEKNERTSVAGTVRKCWPNRVAKEQISRRLDGNQYLFLPPNRYIFHGAEVYSDSEDDVLSSSSCGSNSDSGTCQSPSLEEPMEDESEIEEFYNGLEDEPDVPERAGGAGFGTDGDDQEAINEAISVKQEVTDMNYPSNKS
The kcat/Km is the turnover number divided by the Michaelis constant. The term kcat denotes the number of substrate molecules converted per active site and unit of time at saturation. As a reminder, the Km is the concentration of substrate that gives half-maximal velocity. One may read the Vmax as the rate approached at saturating substrate. As for B1, the kcat/Km in data set [1] is 669 M⁻¹ s⁻¹; in data set [2], 226 M⁻¹ s⁻¹. The kcat was 37.9 10^-3/s in data set [3] and 17.3 10^-3/s in data set [4]. In addition, the figures for the Km in data set [5] and in data set [6] were 56.6 µM and 76.5 µM, respectively. For the same protein, the Vmax in data set [7] turned out to be 454 nM/min; in data set [8], 208 nM/min.
